Measured values: the supplement of paper PMC9876800

Tested on: peptide library, one residue held at a place counted from the S/T acceptor
Assay: relative phosphorylation of the sub-library (ratio to the mean residue at this position); higher = residue favoured
How it was run: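 Purified recombinant kinases, either human or orthologue constructs, were incubated in 384-well plates with biotinylated degenerate peptide sub-libraries. Each sub-library fixed one residue at one position around a central Ser/Thr. Peptides at 50 μM and 50 μM ATP spiked with γ-32P-ATP were used for 90 min under kinase-specific conditions, and spots on streptavidin membranes were phosphorimaged and quantified by densitometry. Relative sub-library phosphorylation is expressed as a ratio to the mean residue at that position.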

Chain of TAOK3, construct: Full length with a 14aa C-terminal extension from Gateway cloning, human (Q9H2K8 whole entry, looked up): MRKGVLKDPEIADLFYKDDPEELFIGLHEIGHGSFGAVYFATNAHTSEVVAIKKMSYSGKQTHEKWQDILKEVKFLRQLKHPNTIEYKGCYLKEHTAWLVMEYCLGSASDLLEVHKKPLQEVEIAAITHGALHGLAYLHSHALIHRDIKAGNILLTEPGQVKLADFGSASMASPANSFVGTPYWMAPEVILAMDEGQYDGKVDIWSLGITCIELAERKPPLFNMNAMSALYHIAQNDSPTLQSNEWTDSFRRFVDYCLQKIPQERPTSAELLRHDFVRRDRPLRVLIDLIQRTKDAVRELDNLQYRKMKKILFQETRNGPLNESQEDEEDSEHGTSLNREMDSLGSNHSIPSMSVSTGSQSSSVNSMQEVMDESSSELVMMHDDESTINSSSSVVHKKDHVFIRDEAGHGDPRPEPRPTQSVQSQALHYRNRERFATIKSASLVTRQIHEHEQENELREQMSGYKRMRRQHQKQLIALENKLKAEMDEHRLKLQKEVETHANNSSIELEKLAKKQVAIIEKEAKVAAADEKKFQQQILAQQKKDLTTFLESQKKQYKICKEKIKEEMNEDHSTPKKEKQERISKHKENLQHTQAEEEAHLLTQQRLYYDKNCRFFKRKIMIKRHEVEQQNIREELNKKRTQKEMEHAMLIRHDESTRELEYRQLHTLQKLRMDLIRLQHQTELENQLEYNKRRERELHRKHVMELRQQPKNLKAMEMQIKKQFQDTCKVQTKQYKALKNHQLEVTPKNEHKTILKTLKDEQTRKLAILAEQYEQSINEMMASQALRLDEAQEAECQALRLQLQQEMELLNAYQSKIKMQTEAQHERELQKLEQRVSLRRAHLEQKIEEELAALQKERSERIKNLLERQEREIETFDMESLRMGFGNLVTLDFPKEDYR

TAOK3, construct: Full length with a 14aa C-terminal extension from Gateway cloning, human (from UniProt Q9H2K8)
relative phosphorylation (M fixed, at -1): 0.911 | relative phosphorylation (M fixed, at -2): 0.805 | relative phosphorylation (M fixed, at -3): 0.566 | relative phosphorylation (M fixed, at -4): 0.682 | relative phosphorylation (M fixed, at -5): 0.629 | relative phosphorylation (N fixed, at +1): 0.595 | relative phosphorylation (N fixed, at +2): 1.73 | relative phosphorylation (N fixed, at +3): 1.08 | relative phosphorylation (N fixed, at +4): 0.891 | relative phosphorylation (N fixed, at -1): 1.61 | relative phosphorylation (N fixed, at -2): 1.15 | relative phosphorylation (N fixed, at -3): 1.28 | relative phosphorylation (N fixed, at -4): 1.42 | relative phosphorylation (N fixed, at -5): 1.23 | relative phosphorylation (P fixed, at +1): 0.551 | relative phosphorylation (P fixed, at +2): 1.09 | relative phosphorylation (P fixed, at +3): 1.14 | relative phosphorylation (P fixed, at +4): 0.945 | relative phosphorylation (P fixed, at -1): 0.707 | relative phosphorylation (P fixed, at -2): 1.17 | relative phosphorylation (P fixed, at -3): 1.23 | relative phosphorylation (P fixed, at -4): 1.38 | relative phosphorylation (P fixed, at -5): 0.984 | relative phosphorylation (Q fixed, at +1): 0.685 | relative phosphorylation (Q fixed, at +2): 0.941 | relative phosphorylation (Q fixed, at +3): 0.987 | relative phosphorylation (Q fixed, at +4): 1.04 | relative phosphorylation (Q fixed, at -1): 1.08 | relative phosphorylation (Q fixed, at -2): 0.856 | relative phosphorylation (Q fixed, at -3): 1.12 | relative phosphorylation (Q fixed, at -4): 1.12 | relative phosphorylation (Q fixed, at -5): 0.961 | relative phosphorylation (R fixed, at +1): 0.583 | relative phosphorylation (R fixed, at +2): 2.5 | relative phosphorylation (R fixed, at +3): 2.29 | relative phosphorylation (R fixed, at +4): 1.62 | relative phosphorylation (R fixed, at -1): 1.37 | relative phosphorylation (R fixed, at -2): 0.959 | relative phosphorylation (R fixed, at -3): 1.73 | relative phosphorylation (R fixed, at -4): 1.11 | relative phosphorylation (R fixed, at -5): 1.13 | relative phosphorylation (V fixed, at +1): 1.05 | relative phosphorylation (V fixed, at +2): 0.659 | relative phosphorylation (V fixed, at +3): 0.558 | relative phosphorylation (V fixed, at +4): 0.753 | relative phosphorylation (V fixed, at -1): 0.373 | relative phosphorylation (V fixed, at -2): 0.541 | relative phosphorylation (V fixed, at -3): 0.459 | relative phosphorylation (V fixed, at -4): 0.562 | relative phosphorylation (V fixed, at -5): 0.634 | relative phosphorylation (W fixed, at +1): 2.79 | relative phosphorylation (W fixed, at +2): 0.578 | relative phosphorylation (W fixed, at +3): 0.971 | relative phosphorylation (W fixed, at +4): 1.19 | relative phosphorylation (W fixed, at -1): 0.807 | relative phosphorylation (W fixed, at -2): 0.932 | relative phosphorylation (W fixed, at -3): 0.832 | relative phosphorylation (W fixed, at -4): 0.819 | relative phosphorylation (W fixed, at -5): 0.92 | relative phosphorylation (Y fixed, at +1): 1.28 | relative phosphorylation (Y fixed, at +2): 0.704 | relative phosphorylation (Y fixed, at +3): 0.854 | relative phosphorylation (Y fixed, at +4): 1.31 | relative phosphorylation (Y fixed, at -1): 1.24 | relative phosphorylation (Y fixed, at -2): 2.12 | relative phosphorylation (Y fixed, at -3): 1 | relative phosphorylation (Y fixed, at -4): 0.726 | relative phosphorylation (Y fixed, at -5): 0.781 | relative phosphorylation (pThr fixed, at +1): 0.887 | relative phosphorylation (pThr fixed, at +2): 0.729 | relative phosphorylation (pThr fixed, at +3): 0.858 | relative phosphorylation (pThr fixed, at +4): 0.782 | relative phosphorylation (pThr fixed, at -1): 0.588 | relative phosphorylation (pThr fixed, at -2): 1.11 | relative phosphorylation (pThr fixed, at -3): 1.23 | relative phosphorylation (pThr fixed, at -4): 1.49 | relative phosphorylation (pThr fixed, at -5): 1.36 | relative phosphorylation (pTyr fixed, at +1): 0.719 | relative phosphorylation (pTyr fixed, at +2): 0.757 | relative phosphorylation (pTyr fixed, at +3): 0.752 | relative phosphorylation (pTyr fixed, at +4): 0.848 | relative phosphorylation (pTyr fixed, at -1): 2.28 | relative phosphorylation (pTyr fixed, at -2): 1.3 | relative phosphorylation (pTyr fixed, at -3): 1.18 | relative phosphorylation (pTyr fixed, at -4): 1.33 | relative phosphorylation (pTyr fixed, at -5): 1.47
